US8491890

Target: Fas (CD95, APO-1) on mouse microglia (mouse) (UniProt P25446)
Test: cell-based or functional assay

Sequence of UniProt P25446 (P25446 22-327): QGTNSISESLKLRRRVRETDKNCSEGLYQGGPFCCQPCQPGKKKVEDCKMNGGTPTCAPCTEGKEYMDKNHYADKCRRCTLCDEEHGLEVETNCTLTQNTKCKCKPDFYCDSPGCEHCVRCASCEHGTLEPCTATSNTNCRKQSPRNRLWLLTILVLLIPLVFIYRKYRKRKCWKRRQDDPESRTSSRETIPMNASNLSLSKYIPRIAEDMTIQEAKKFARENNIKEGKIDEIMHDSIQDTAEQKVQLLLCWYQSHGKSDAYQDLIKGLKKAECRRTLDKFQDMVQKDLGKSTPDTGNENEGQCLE

decrease of CB expression in Teff-treated cultures on blocking of FasL interactions (flow cytometry): 4.8%
decrease of CB protein expression in Treg-treated microglia on neutralization of FasL (flow cytometry): 40.2%
Substance: Fas ligand (FasL) on mouse Treg and Teff (from UniProt P41047 1-279)
